Data taken from US20240058465A1 (SUTRO BIOPHARMA, published 2024).

Legend:
[1] = biological target: T1, human ROR1 (hROR1) expressed on cells (human, UniProt Q01973 30-937); assay: flow cytometry, HCT116-hROR1 cells
T1 construct: Mino cells are the target positive cells of the killing assay; also called receptor tyrosine kinase like orphan receptor 1; HCT 116-hROR1

[2] = biological target: T1, human ROR1 (hROR1) expressed on cells; assay: cell-based or functional assay
human ROR1-ECD = biological target: T2, human ROR1-ECD (human, UniProt Q01973 30-406); assay: SPR (Biacore), antibody captured by anti-Fc, human ROR1-ECD analyte
T2 construct: Bought protein; also called hROR1; ROR1-extracellular domain
Description: Anti-Fc polyclonal antibodies were immobilized onto a CMS chip (GE Life Sciences) using amine coupling chemistry (from Amine Coupling Kit, GE Life Sciences). The immobilization steps were carried out at a flow rate of 25 μL/min in 1×HBS-EP+buffer (GE Life Sciences; 10× Stock diluted before use). The sensor surfaces were activated for 7 min with a mixture of NHS (0.05 M) and EDC (0.2 M). The Anti-Fc antibodies were injected over all 4 flow cells at a concentration of 25 ug/ml in 10 mM sodium acetate, pH 4.5, for 7 min. Ethanolamine (1 M, pH 8.5) was injected for 7 min to block any remaining activated groups.
Off-rate and kinetic binding experiments were performed at 25° C. using 1×HBS-EP+buffer. Test and control antibodies were injected over the anti-Fc surface at concentrations of 5-10 μg/mL for 12 seconds at a flow rate of 10 μL/min on flow cells 2, 3 and 4, followed by a buffer wash for 30 seconds at the same flow rate. […] After capturing ligand (antibody) on the anti-Fc surface, the analyte (hROR1, Fz or Kr domains, Acro Biosystems, Delaware) was bound for 180 seconds, followed by a 600 second dissociation phase at a flow rate of 50 μL/min. Between each ligand capture and analyte binding cycle, regeneration was carried out using 2 injections of 10 mM Glycine pH 2.0 for 30 seconds at 30 μL/min, followed by a 30 second buffer wash step.

| Binder | Bmax (MFI) [1] | Kd [1] | Mino Nb-PBD, drug-conjugated 2° antibody Cell Killing IC50 [2] | Mino Nb-PBD, drug-conjugated 2° antibody Cell Killing Span [2] | Kd (human ROR1-ECD) | koff (human ROR1-ECD) | kon (human ROR1-ECD) |
| --- | --- | --- | --- | --- | --- | --- | --- |
| SRP2188-A02 (antibody, IgG1, V domains shown, IgG1 with trastuzumab LC; HIS- and FLAG-tagged; cell-free expressed) VH: EVQLVESGGGLVQPGGSLRLSCAASGFNIKSYDIHWVRQAPGKGLEWVGWINPEDGDTYYADSVKGRFTISADTSKNTAYLQMNSLRAEDTAVYYCARDFGVFDYWGQGTLVTVSS VL: not shown | 9390 MFI | 30 pM | 0.7 pM | 65% | – | – | – |
| SRP2188-A08 (antibody, IgG1, V domains shown, IgG1 with trastuzumab LC; HIS- and FLAG-tagged; cell-free expressed) VH: EVQLVESGGGLVQPGGSLRLSCAASGFNIHNFDIHWVRQAPGKGLEWVGWINPFDGDTYYADSVKGRFTISADTSKNTAYLRMNSLRAEDTAAYYCARDYGVFDYWGQGTLVTVSS VL: not shown | 8130 MFI | 180 pM | 20 pM | 75% | – | – | – |
| SRP2188-B01 (antibody, IgG1, V domains shown, IgG1 with trastuzumab LC; HIS- and FLAG-tagged; cell-free expressed) VH: EVQLVESGGGLVQPGGSLRLSCAASGFNINSHDIHWVRQAPGKGLEWVGWINPDDGDTYYADSVKGRFTISADTSKNTAYLQMNSLRAEDTAVYYCARDYGVLDYWGQGTLVTVSS VL: not shown | 9470 MFI | 40 pM | 0.69 pM | 75% | – | – | – |
| SRP2188-C02 (antibody, IgG1, V domains shown, IgG1 with trastuzumab LC; HIS- and FLAG-tagged; cell-free expressed) VH: EVQLVESGGGLVQPGGSLRLSCAASGFNIERYDIHWVRQAPGKGLEWVGWINPDDGDTYYADSVKGRFTISADTSKNTAYLQTKSLRAEDTAVYYCARDYGVFDYWGQGTLVTVSS VL: not shown | 9920 MFI | 130 pM | 10 pM | 73% | – | – | – |
| SRP2188-D02 (antibody, IgG1, V domains shown, IgG1 with trastuzumab LC; HIS- and FLAG-tagged; cell-free expressed) VH: EVQLVESGGGLVQPGGSLRLSCAASGFNISDYDIHWVRQAPGKGLEWVGGIDPEDGATDYADSVKGRFTISADTSKNTAYLQMNSLRAEDTAVYYCARDYGVFDYWGQGTLVTVSS VL: not shown | 10000 MFI | 40 pM | 1.4 pM | 72% | – | – | – |
| SRP2188-D07 (antibody, IgG1, V domains shown, IgG1 with trastuzumab LC; HIS- and FLAG-tagged; cell-free expressed) VH: EVQLVESGGGLVQPGGSLRLSCAASGFNISDFDIHWVRQAPGKGLEWVVGIDPTDGATDYADSVKGRFTISADTSKNTAYLQMNSLRAEDTAVYYCARDYGVFDYWGQGTLVTVSS VL: not shown | 8990 MFI | 40 pM | 1.7 pM | 70% | – | – | – |
| SRP2188-D10 (antibody, IgG1, V domains shown, IgG1 with trastuzumab LC; HIS- and FLAG-tagged; cell-free expressed) VH: EVQLVESGGGLVQPGGSLRLSCAASGFNISDYDIHWVRQAPGKGLEWVGRIDPRDGATDYADSVKGRFTISADTSKNTAYLQMNSLRAEDTAVYYCARDYGVFDYWGQGTLVTVSS VL: not shown | 9070 MFI | 50 pM | 1 pM | 65% | – | – | – |
| SRP2188-E02 (antibody, IgG1, V domains shown, IgG1 with trastuzumab LC; HIS- and FLAG-tagged; cell-free expressed) VH: EVQLVESGGGLVQPGGSLRLSCAASGFNIPDYEIHWVRQAPGKGLEWVGGIEPHDGSTDYADSVKGRFTISADTSKNTAYLQMNSLRAEDTAVYYCARDYGVYDYWGQGTLVTVSS VL: not shown | 10500 MFI | 70 pM | 0.75 pM | 76% | – | – | – |
| SRP2188-E05 (antibody, IgG1, V domains shown, IgG1 with trastuzumab LC; HIS- and FLAG-tagged; cell-free expressed) VH: EVQLVESGGGLVQPGGSLRLSCAASGFNISDYDIHWVRQAPGKGLEWVAGIEPWDGSTDHADSVKGRFTISADTSKNTAYLQMNSLRAEDTAVYYCARDYGVFDYWGQGTLVTVSS VL: not shown | 10600 MFI | 50 pM | – | – | 369 pM | 0.00031 s⁻¹ | 840000 M⁻¹ s⁻¹ |
| SRP2188-E06 (antibody, IgG1, V domains shown, IgG1 with trastuzumab LC; HIS- and FLAG-tagged; cell-free expressed) VH: EVQLVESGGGLVQPGGSLRLSCAASGFNIGDYDIHWVRQAPGKGLEWVGGIDPEDGATDIADSVKGRFTISADTSKNTAYLQMDSLRAEDTAVYYCARDYGVFDYWGQGTLVTVSS VL: not shown | 9970 MFI | 40 pM | – | – | 438 pM | 0.000346 s⁻¹ | 790000 M⁻¹ s⁻¹ |
| SRP2188-E10 (antibody, IgG1, V domains shown, IgG1 with trastuzumab LC; HIS- and FLAG-tagged; cell-free expressed) VH: EVQLVESGGGLVQPGGSLRLSCAASGFNIGDFDIHWVRQAPGKGLEWVGGIDPRDGATDYADSVKGRFTISADTSKNTAYLQMNSLRAEDTAVYYCARDYGVFDYWGQGTLVTVSS VL: not shown | 9120 MFI | 40 pM | 0.99 pM | 73% | – | – | – |
| SRP2188-F01 (antibody, IgG1, V domains shown, IgG1 with trastuzumab LC; HIS- and FLAG-tagged; cell-free expressed) VH: EVQLVESGGGLVQPGGSLRLSCAASGFNIRYYDIHWVRQAPGKGLEWVGLIDPDDGWTVSADSVKGRFTISADTSKNTAYLQMNSLRAEDTAVYYCARDYGVFDYWGQGTLVTVSS VL: not shown | 8660 MFI | 20 pM | – | – | 546 pM | 0.000316 s⁻¹ | 578000 M⁻¹ s⁻¹ |
| SRP2188-F03 (antibody, IgG1, V domains shown, IgG1 with trastuzumab LC; HIS- and FLAG-tagged; cell-free expressed) VH: EVQLVESGGGLVQPGGSLRLSCAASGFNISDYDIHWVRQAPGKGLEWVSGIDPDDGSTDYADSVKGRFTISADTSKNTAYLQMNSLRAEDTAVYYCARDYGVFDYWGQGTLVTVSS VL: not shown | 10100 MFI | 40 pM | 1.1 pM | 71% | – | – | – |
| SRP2188-F04 (antibody, IgG1, V domains shown, IgG1 with trastuzumab LC; HIS- and FLAG-tagged; cell-free expressed) VH: EVQLVESGGSLVQPGGSLRLSCAASGFNISDFDIHWVRQAPGKGLEWVSGIDPDDGATDYADSVKGRFTISADTSKNTAYLQMNSLRAEDTAVYYCARDYGVFDYWGQGTLVTVSS VL: not shown | 10000 MFI | 30 pM | 0.72 pM | 71% | – | – | – |
| SRP2188-F05 (antibody, IgG1, V domains shown, IgG1 with trastuzumab LC; HIS- and FLAG-tagged; cell-free expressed) VH: EVQLVESGGGLVQPGGSLRLSCAASGFNISDYDIHWVRQAPGKGLEWVGGIDPRDGATDSADSVKGRFTISADTSKNTAYLQMNSLRAEDTAVYYCARDYGVFDYWGQGTLVTVSS VL: not shown | 9620 MFI | 40 pM | – | – | 587 pM | 0.00051 s⁻¹ | 870000 M⁻¹ s⁻¹ |
| SRP2188-F09 (antibody, IgG1, V domains shown, IgG1 with trastuzumab LC; HIS- and FLAG-tagged; cell-free expressed) VH: EVQLVESGGDLVQPGGSLRLSCAASGFNIRDYDIHWVRQAPGKGLEWVSAIDPNDGSTDYADSVKGRFTISADTSKNTAYLQMNSLRAEDTAVYYCARDYGVFDYWGQGTLVTVSS VL: not shown | 8760 MFI | 20 pM | 1.8 pM | 59% | – | – | – |
| SRP2188-F10 (antibody, IgG1, V domains shown, IgG1 with trastuzumab LC; HIS- and FLAG-tagged; cell-free expressed) VH: EVQLVESGGGLVQPGGSLRLSCAASGFNISVFDIHWVRQAPGKGLEWVGGIDPNDGATDHADSVKGRFTISADTSKNTAYLQMNSLRAEDTAVYYCARDYGVFDYWGQGTLVTVSS VL: not shown | 8480 MFI | 30 pM | – | – | 399 pM | 0.000399 s⁻¹ | 1e+06 M⁻¹ s⁻¹ |
| SRP2188-G04 (antibody, IgG1, V domains shown, IgG1 with trastuzumab LC; HIS- and FLAG-tagged; cell-free expressed) VH: EVQLVESGGGLVQPGGSLRLSCAASGFNIFDYDIHWVRQAPGKGLEWVGGIDPRDGSTDHADSVKGRFTISADTSKNTAYLQMNSLRAEDTAVYYCARDYGVYDYWGQGTLVTVSS VL: not shown | 8990 MFI | 20 pM | – | – | 406 pM | 0.000259 s⁻¹ | 639000 M⁻¹ s⁻¹ |
| SRP2188-B04 (antibody, IgG1, V domains shown, IgG1 with trastuzumab LC; HIS- and FLAG-tagged; cell-free expressed) VH: EVQLVESGGGLVQPGGSLRLSCAASGFNITWYDIHWVRQAPGKGLEWVGWINPDDGDTYYADSVKGRFTISADTSKNTAYLQMNSLRAEDTAVYYCARDYGVFDYWGQGTLVTVSS VL: not shown | 9660 MFI | 50 pM | 1.2 pM | 73% | – | – | – |
| SRP2188-B08 (antibody, IgG1, V domains shown, IgG1 with trastuzumab LC; HIS- and FLAG-tagged; cell-free expressed) VH: EVQLVESGGGLVQPGGSLRLSCAASGFNIDSYDIHWVRQAPGKGLEWVGWINPDDGDTFYADSVKGRFTISADTSKNTAYLQMDSLRAEDTAVYYCARDYGVFDYWGQGTLVTVSS VL: not shown | 9210 MFI | 90 pM | 6.2 pM | 71% | – | – | – |
| SRP2188-C03 (antibody, IgG1, V domains shown, IgG1 with trastuzumab LC; HIS- and FLAG-tagged; cell-free expressed) VH: EVQLVESGGGLVQPGGSLRLSCAASGFNINSYDIHWVRQAPGKGLEWVGWINPDDGDTYYADSVKGRFTISADTSKNTAYLQMNSLRAEDTAVYYCARDYGVFDYWGQGTLVTVSS VL: not shown | 9600 MFI | 30 pM | 1.1 pM | 71% | – | – | – |
| SRP2188-C07 (antibody, IgG1, V domains shown, IgG1 with trastuzumab LC; HIS- and FLAG-tagged; cell-free expressed) VH: EVQLVESGGGLVQPGGSLRLSCAASGFNIVRYDIHWVRQAPGKGLEWVGWINPDDGDTYYADSVKGRFTISADTSKNTAYLQMNSLRAEDTAVYYCARDYGVFDYWGQGTLVTVSS VL: not shown | 9160 MFI | 40 pM | 0.85 pM | 71% | – | – | – |
